In article PMC12404239:

Experiments:
[1] = target: influenza B haemagglutinin (HA) B/Maryland/15/16 (influenza B virus (B/Maryland/15/16)); assay: […], running buffer TBS, […]
[2] = target: SARS-CoV-2 spike glycoprotein (S) (SARS-CoV-2) (UniProt P0DTC2); assay: […], running buffer TBS, […]

Substance “influenza B haemagglutinin (HA) B/Maryland/15/16 (natural protein)” has a stoichiometry N [1] of 3.
In the case of “SARS-CoV-2 spike glycoprotein (S) (from UniProt P0DTC2 14-1273) (natural protein)”, the stoichiometry N [2] is reported as 3.
